The values that follow come from patent US20240400715A1 (VIBRANT PHARMA, published 2024).

Numbering of substitutions follows the chain as printed. Values joined by “and” are separate entries in the source; they are usually repeats but may differ in a detail not shown here. Equal entries are not always repeated.

To fix the notation:
B1: Knob+CEA-Fab-Hole (206) (bispecific antibody, human IgG4 S228P, kappa, F234A L235A)
chain: ESKYGPPCPPCPAPEAAGGPSVFLFPPKPKDTLMISRTPEVTCVVVDVSQEDPEVQFNWYVDGVEVHNAKTKPREEQFNSTYRVVSVLTVLHQDWLNGKEYKCKVSNKGLPSSIEKTISKAKGQPREPQVYTLPPCQEEMTKNQVSLWCLVKGFYPSDIAVEWESNGQPENNYKTTPPVLDSDGSFFLYSRLTVDKSRWQEGNVFSCSVMHEALHNHYTQKSLSLSL
heavy: EVQLVESGGGFVQAGESLTLSCTSSTLTFTPYRMAWYRQAPGKQRDLVADISSGDGRTTNYADFAKGRFTISRDNIKNTVFLRMTNLKPEDTAVYYCNTFVSFVGIARSWGQGTQVTVSSGGGGSGGGGSEVKLLESGGGLVQPKGSLKLSCAASGFTFNTYAMNWVRQAPGKGLEWVARIRSKYNNYATYYADSVKDRFTISRDDSQSILYLQMNNLKTEDTAMYYCVRHGNFGNSYVSWFAYWGQGTLVTVSSASTKGPSVFPLAPCSRSTSESTAALGCLVKDYFPEPVTVSWNSGALTSGVHTFPAVLQSSGLYSLSSVVTVPSSSLGTKTYTCNVDHKPSNTKVDKRVESKYGPPCPPCPAPEAAGGPSVFLFPPKPKDTLMISRTPEVTCVVVDVSQEDPEVQFNWYVDGVEVHNAKTKPREEQFNSTYRVVSVLTVLHQDWLNGKEYKCKVSNKGLPSSIEKTISKAKGQPREPQVCTLPPSQEEMTKNQVSLSCAVKGFYPSDIAVEWESNGQPENNYKTTPPVLDSDGSFFLVSRLTVDKSRWQEGNVFSCSVMHEALHNRFTQKSLSLSL
light: QAVVTQESALTTSPGETVTLTCRSSTGAVTTSNYANWVQEKPDHLFTGLIGGTNKRAPGVPARFSGSLIGDKAALTITGAQTEDEAIYFCALWYSNLWVFGGGTKVEIKRTVAAPSVFIFPPSDEQLKSGTASVVCLLNNFYPREAKVQWKVDNALQSGNSQESVTEQDSKDSTYSLSSTLTLSKADYEKHKVYACEVTHQGLSSPVTKSFNRGEC
notes: VHH linked to the VH of the Fab; human IgG4 knob-into-hole Fc
B2: 307 (TA2), configuration of FIG. 1X (bispecific antibody, IgG4)
heavy: QVQLVQSGGGVVQPGRSLRLSCKASGYTFTRYTMHWVRQAPGKGLEWIGYINPSRGYTNYNQKVKDRFTISRDNSKNTAFLQMDSLRPEDTGVYFCARYYDDHYCLDYWGQGTPVTVSSASTKGPSVFPLAPCSRSTSESTAALGCLVKDYFPEPVTVSWNSGALTSGVHTFPAVLQSSGLYSLSSVVTVPSSSLGTKTYTCNVDHKPSNTKVDKRVESKYGPPCPPCPAPEAAGGPSVFLFPPKPKDTLMISRTPEVTCVVVDVSQEDPEVQFNWYVDGVEVHNAKTKPREEQFNSTYRVVSVLTVLHQDWLNGKEYKCKVSNKGLPSSIEKTISKAKGQPREPQVYTLPPCQEEMTKNQVSLWCLVKGFYPSDIAVEWESNGQPENNYKTTPPVLDSDGSFFLYSRLTVDKSRWQEGNVFSCSVMHEALHNHYTQKSLSLSLGGGGSGGGGSEVQLVESGGGFVQAGESLTLSCTSSTLTFTPYRMAWYRQAPGKQRDLVADISSGDGRTTNYADFAKGRFTISRDNIKNTVFLRMTNLKPEDTAVYYCNTFVSFVGIARSWGQGTQVTVSS
chain: B1 chain with Y131C, C136S, W148S, L150A, Y189V, H217R, Y218F
light: DIQMTQSPSSLSASVGDRVTITCSASSSVSYMNWYQQTPGKAPKRWIYDTSKLASGVPSRFSGSGSGTDYTFTISSLQPEDIATYYCQQWSSNPFTFGQGTKLQIT
notes: chains put together from parts; IgG4, kappa; also called CEA-CD3 bispecific antibody 307; not shown: kappa light chain constant domain (CL)
B3: 310 (TA5), configuration of FIG. 1X (bispecific antibody, IgG4)
heavy: DVQLVQSGAEVKKPGASVKVSCKASGYTFTRYTMHWVRQAPGQGLEWIGYINPSRGYTNYADSVKGRFTITTDKSTSTAYMELSSLRSEDTATYYCARYYDDHYCLDYWGQGTTVTVSSASTKGPSVFPLAPCSRSTSESTAALGCLVKDYFPEPVTVSWNSGALTSGVHTFPAVLQSSGLYSLSSVVTVPSSSLGTKTYTCNVDHKPSNTKVDKRVESKYGPPCPPCPAPEAAGGPSVFLFPPKPKDTLMISRTPEVTCVVVDVSQEDPEVQFNWYVDGVEVHNAKTKPREEQFNSTYRVVSVLTVLHQDWLNGKEYKCKVSNKGLPSSIEKTISKAKGQPREPQVYTLPPCQEEMTKNQVSLWCLVKGFYPSDIAVEWESNGQPENNYKTTPPVLDSDGSFFLYSRLTVDKSRWQEGNVFSCSVMHEALHNHYTQKSLSLSLGGGGSGGGGSEVQLVESGGGFVQAGESLTLSCTSSTLTFTPYRMAWYRQAPGKQRDLVADISSGDGRTTNYADFAKGRFTISRDNIKNTVFLRMTNLKPEDTAVYYCNTFVSFVGIARSWGQGTQVTVSS
chain: B1 chain with Y131C, C136S, W148S, L150A, Y189V, H217R, Y218F
light: DIVLTQSPATLSLSPGERATLSCRASQSVSYMNWYQQKPGKAPKRWIYDTSKVASGVPARFSGSGSGTDYSLTINSLEAEDAATYYCQQWSSNPLTFGGGTKVEIK
notes: chains put together from parts; IgG4, kappa; also called CEA-CD3 bispecific antibody 310; not shown: kappa light chain constant domain (CL)
B4: 306 (TA7), configuration of FIG. 1W (bispecific antibody, IgG4)
heavy: EVQLVQSGAEVKKPGASVKVSCKASGFTFTSYYIHWVRQAPGQGLEWIGWIYPENDNTKYNEKFKDRVTITADTSTSTAYLELSSLRSEDTAVYYCARDGYSRYYFDYWGQGTLVTVSSASTKGPSVFPLAPCSRSTSESTAALGCLVKDYFPEPVTVSWNSGALTSGVHTFPAVLQSSGLYSLSSVVTVPSSSLGTKTYTCNVDHKPSNTKVDKRVESKYGPPCPPCPAPEAAGGPSVFLFPPKPKDTLMISRTPEVTCVVVDVSQEDPEVQFNWYVDGVEVHNAKTKPREEQFNSTYRVVSVLTVLHQDWLNGKEYKCKVSNKGLPSSIEKTISKAKGQPREPQVYTLPPCQEEMTKNQVSLWCLVKGFYPSDIAVEWESNGQPENNYKTTPPVLDSDGSFFLYSRLTVDKSRWQEGNVFSCSVMHEALHNHYTQKSLSLSL
chain: EVQLVESGGGFVQAGESLTLSCTSSTLTFTPYRMAWYRQAPGKQRDLVADISSGDGRTTNYADFAKGRFTISRDNIKNTVFLRMTNLKPEDTAVYYCNTFVSFVGIARSWGQGTQVTVSSESKYGPPCPPCPAPEAAGGPSVFLFPPKPKDTLMISRTPEVTCVVVDVSQEDPEVQFNWYVDGVEVHNAKTKPREEQFNSTYRVVSVLTVLHQDWLNGKEYKCKVSNKGLPSSIEKTISKAKGQPREPQVCTLPPSQEEMTKNQVSLSCAVKGFYPSDIAVEWESNGQPENNYKTTPPVLDSDGSFFLVSRLTVDKSRWQEGNVFSCSVMHEALHNRFTQKSLSLSL
light: DIVMTQSPDSLAVSLGERATINCKSSQSLLNSRTRKNYLAWYQQKPGQSPKLLIYWTSTRKSGVPDRFSGSGSGTDFTLTISSLQAEDVAVYYCKQSFILRTFGQGTKVEIK
notes: chains put together from VH/VL, CH1, knob-Fc; IgG4, kappa; also called CEA-CD3 bispecific antibody 306; not shown: kappa light chain constant domain (CL)
B5: 304 (TA5), configuration of FIG. 1W (bispecific antibody, IgG4)
heavy: DVQLVQSGAEVKKPGASVKVSCKASGYTFTRYTMHWVRQAPGQGLEWIGYINPSRGYTNYADSVKGRFTITTDKSTSTAYMELSSLRSEDTATYYCARYYDDHYCLDYWGQGTTVTVSSASTKGPSVFPLAPCSRSTSESTAALGCLVKDYFPEPVTVSWNSGALTSGVHTFPAVLQSSGLYSLSSVVTVPSSSLGTKTYTCNVDHKPSNTKVDKRVESKYGPPCPPCPAPEAAGGPSVFLFPPKPKDTLMISRTPEVTCVVVDVSQEDPEVQFNWYVDGVEVHNAKTKPREEQFNSTYRVVSVLTVLHQDWLNGKEYKCKVSNKGLPSSIEKTISKAKGQPREPQVYTLPPCQEEMTKNQVSLWCLVKGFYPSDIAVEWESNGQPENNYKTTPPVLDSDGSFFLYSRLTVDKSRWQEGNVFSCSVMHEALHNHYTQKSLSLSL
chain: B4 chain
light: B3 light
notes: chains put together from VH/VL, CH1, knob-Fc; IgG4, kappa; not shown: kappa light chain constant domain (CL)
B6: 301 (TA2), configuration of FIG. 1W (bispecific antibody, IgG4)
heavy: QVQLVQSGGGVVQPGRSLRLSCKASGYTFTRYTMHWVRQAPGKGLEWIGYINPSRGYTNYNQKVKDRFTISRDNSKNTAFLQMDSLRPEDTGVYFCARYYDDHYCLDYWGQGTPVTVSSASTKGPSVFPLAPCSRSTSESTAALGCLVKDYFPEPVTVSWNSGALTSGVHTFPAVLQSSGLYSLSSVVTVPSSSLGTKTYTCNVDHKPSNTKVDKRVESKYGPPCPPCPAPEAAGGPSVFLFPPKPKDTLMISRTPEVTCVVVDVSQEDPEVQFNWYVDGVEVHNAKTKPREEQFNSTYRVVSVLTVLHQDWLNGKEYKCKVSNKGLPSSIEKTISKAKGQPREPQVYTLPPCQEEMTKNQVSLWCLVKGFYPSDIAVEWESNGQPENNYKTTPPVLDSDGSFFLYSRLTVDKSRWQEGNVFSCSVMHEALHNHYTQKSLSLSL
chain: B4 chain
light: B2 light
notes: IgG4, kappa; not shown: kappa light chain constant domain (CL)

The first assay deals with T1, human CD3 on Jurkat cells (human, UniProt P07766 23-207; P04234 22-171; P09693 23-182).
T1 construct: whole, on cells; CD3 complex as on Jurkat (Clone E6-1) cells; also called CD3 expressing cells (Jurkat)
In words: FACS, Jurkat cells.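 Note: flow cytometric binding of bispecific antibodies to Jurkat T cells, threefold serial dilutions incubated half an hour in the cold, EC50 taken from the fitted binding curve.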
Take B1: the EC50 was 8.29 nM and 1.08 µg/mL.

Regarding B2, the EC50 was 2.86 µg/mL and 22 nM.

As for B3, the EC50 was 0.181 µg/mL and 1.39 nM.

B4: the EC50 was 0.0129 µg/mL and 0.1 nM.

B5: the EC50 is 0.101 µg/mL and 0.77 nM.

As to B6, the EC50 was 0.282 µg/mL and 2.17 nM.

A further assay concerns the target T2, human CD3ε/δ (ACRO systems, CDD-H52W1) (human, UniProt P07766 23-126; P04234 22-105).
T2 construct: Bought protein; also called human CD3ϵ/CD3δ; human CD3 epsilon/delta antigen
Put plainly: BLI, antibody captured, antigen in solution.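 Note: bispecific antibodies captured on AHIC biosensors to a 1.5 nm loading signal, in PBST with 0.02% detergent.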
Method: The bispecific antibodies were diluted to 5 ag/ml, and 1.5 nm protein was coupled to the surface of the AHIC sensor chip through 0.02% PBST.
The molecule B1 had a Kd of 3.08 nM, a koff of 0.000552 s⁻¹ and a kon of 180000 M⁻¹ s⁻¹.

With B4, the Kd came to 1.4 nM, the koff came out at 0.000419 s⁻¹ and the kon was 278000 M⁻¹ s⁻¹.
